The source of these data is paper PMC11432006.

The chains are these.
B1: anti-lysozyme VNAR (lyso-VNAR) C30A; C112.1S (protein)
chain: ARVDQTPQTITKETGESLTINCVLRDSNAALSSTYWYRKKSGSTNEESISKGGRYVETVNSGSKSFSLRINDLTVEDSGTYRCKPESRYGSYDAESAALNDQYGGGTVVTVN
B2: anti-lysozyme VNAR (lyso-VNAR) C30G; C112.1L (protein)
chain: B1 chain with A29G, S96L
B3: anti-lysozyme VNAR (lyso-VNAR) C30L; C112.1A (protein)
chain: B1 chain with A29L, S96A
B4: anti-lysozyme VNAR (lyso-VNAR) C30G; C112.1A (protein)
chain: B1 chain with A29G, S96A
B5: anti-lysozyme VNAR (lyso-VNAR) C30P; C112.1T (protein)
chain: B1 chain with A29P, S96T
B6: anti-lysozyme VNAR (lyso-VNAR) C30L; C112.1L (protein)
chain: B1 chain with A29L, S96L
B7: anti-lysozyme VNAR (lyso-VNAR) C30W; C112.1V (protein)
chain: B1 chain with A29W, S96V

Changes are numbered by the printed parent chain. Names may count otherwise.

The target in the assay is lysozyme from egg, P00698. In words: SPR. Conditions: chain shown with the change; lysozyme immobilized, VNAR flowed over; 1:1 fitting model.
lysozyme from egg, P00698, sequence (P00698 19-147): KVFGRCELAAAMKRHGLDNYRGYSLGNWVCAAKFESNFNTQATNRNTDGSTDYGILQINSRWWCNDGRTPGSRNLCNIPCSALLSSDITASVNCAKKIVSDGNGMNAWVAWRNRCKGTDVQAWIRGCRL
Consider B1, for which the ratio to parent is 31.5.
The same measure for B2: 12.7; for B3: 19.1; for B4: 24.1.
The result for B5 reads 211; that for B6, 100; that for B7, 54.3.
